Patent publication US20040024191, “Multimerized DBH enhancer domains” (published 2004)

Molecular target: His6-Phox2a (1-149) (Mus musculus, UniProt Q62066 Q62066:1-149)
Experiment: footprint; DNase I footprint
Settings: tags: N-terminal His6, pET15b, E. coli BL21(DE3); label: 32P

Sequence of His6-Phox2a (1-149) (Q62066 1-149, one chain of several): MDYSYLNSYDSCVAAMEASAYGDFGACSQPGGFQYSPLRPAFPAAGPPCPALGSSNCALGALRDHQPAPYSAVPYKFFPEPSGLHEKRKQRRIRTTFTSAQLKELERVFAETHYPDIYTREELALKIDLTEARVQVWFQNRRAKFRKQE

B1: PBS3 (dsDNA)
DNA 1: GAGGGAAAATTGGATTCCCCG
DNA 2: CGGGGAATCCAATTTTCCCTC
Q: Does B1 bind?
A: Result: binds
